The text below walks through data of patent publication WO2023190852A1.

The assay addresses RBD derived from the Omicron strain (BA.3 strain) (SARS-CoV-2).
AZD1061 (antibody) gave a binding inhibition rate (%) of under 80%.

Take LY_CoV16 (antibody): the binding inhibition rate (%) is under 80%.

S309 (antibody) registered a binding inhibition rate (%) of under 80%.

In turn, LY_CoV555 (antibody) had a binding inhibition rate (%) of under 80%.

In turn, REGN10987 (antibody) came in with a binding inhibition rate (%) of under 80%.

For the substance AZD8895 (antibody), the binding inhibition rate (%) was under 80%.

Take REGN10933 (antibody): the binding inhibition rate (%) is under 80%.

Regarding ADG2 (antibody), the binding inhibition rate (%) is under 80%.
